Laboratory results from article PMC5815136.
Numbering of substitutions follows the chain as printed.

Key:
Ct_Rio2 = target: T1, Ct_Rio2 (Chaetomium thermophilum? (given only as …, UniProt L0BC08 1-396)); experiment: EMSA
T1 sequence: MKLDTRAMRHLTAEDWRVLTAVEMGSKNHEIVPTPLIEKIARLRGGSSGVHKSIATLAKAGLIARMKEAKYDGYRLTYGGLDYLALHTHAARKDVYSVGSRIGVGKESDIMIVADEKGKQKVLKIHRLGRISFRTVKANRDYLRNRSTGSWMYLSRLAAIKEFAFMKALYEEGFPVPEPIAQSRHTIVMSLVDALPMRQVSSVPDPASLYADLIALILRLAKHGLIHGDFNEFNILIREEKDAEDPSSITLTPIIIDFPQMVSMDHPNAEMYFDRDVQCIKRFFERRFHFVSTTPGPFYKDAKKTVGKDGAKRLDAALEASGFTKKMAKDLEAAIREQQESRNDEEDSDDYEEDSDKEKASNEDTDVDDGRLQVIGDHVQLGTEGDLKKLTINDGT

Ct_Rio2 K106A = target: T2, Ct_Rio2 K106A (Chaetomium thermophilum? (given only as …, UniProt L0BC08 1-396, K106A)); experiment: EMSA
T2 sequence: T1 sequence with K106A

Binder | binding result (Ct_Rio2) | binding result (Ct_Rio2 K106A)
GGGUUAAUUUGACUCAACACGGGGAAA (structured_RNA) [h31] | binds | 
GGGUUAAUUUGACUCAACACAAAGAAA (structured_RNA) [h31* (h31-Stab)] | binds | binds
